Assays:
[1] = target: E. coli DnaB replicative helicase (E. coli, UniProt P0ACB0 1-471); assay: negative-stain electron microscopy
[2] = target: the molecule itself; assay: negative-stain electron microscopy

Sequence of E. coli DnaB replicative helicase (P0ACB0 whole entry): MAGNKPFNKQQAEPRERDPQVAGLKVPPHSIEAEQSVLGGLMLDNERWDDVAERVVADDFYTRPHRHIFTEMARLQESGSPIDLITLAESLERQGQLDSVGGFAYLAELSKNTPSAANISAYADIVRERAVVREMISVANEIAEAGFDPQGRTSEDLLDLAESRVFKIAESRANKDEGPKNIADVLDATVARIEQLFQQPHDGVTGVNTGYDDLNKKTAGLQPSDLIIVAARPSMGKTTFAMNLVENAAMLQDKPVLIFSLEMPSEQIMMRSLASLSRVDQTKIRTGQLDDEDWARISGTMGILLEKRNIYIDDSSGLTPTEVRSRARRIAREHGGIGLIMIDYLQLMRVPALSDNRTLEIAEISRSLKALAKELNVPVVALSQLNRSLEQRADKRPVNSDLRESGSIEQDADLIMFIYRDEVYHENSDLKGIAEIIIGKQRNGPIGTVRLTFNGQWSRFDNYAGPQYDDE

B1: E. coli DnaC helicase loader (natural protein, UniProt P0AEF0 1-245, looked up)
chain: MKNVGDLMQRLQKMMPAHIKPAFKTGEELLAWQKEQGAIRSAALERENRAMKMQRTFNRSGIRPLHQNCSFENYRVECEGQMNALSKARQYVEEFDGNIASFIFSGKPGTGKNHLAAAICNELLLRGKSVLIITVADIMSAMKDTFRNSGTSEEQLLNDLSNVDLLVIDEIGVQTESKYEKVIINQIVDRRSSSKRPTGMLTNSNMEEMTKLLGERVMDRMRLGNSLWVIFNWDSYRSRVTGKEY
stoichiometry N [1]: 6 DnaC subunits per DnaB hexamer
stoichiometry N [2]: 6
